Experiments:
Experiment in all cases: cell-based or functional assay
[1] = molecular target: HIV-1 IIIB envelope glycoprotein (Env) (HIV-1 strain IIIB)
[2] = molecular target: HIV-1 AD8 envelope glycoprotein (Env) (HIV-1 strain AD8)
[3] = molecular target: HIV-1 JR-FL envelope glycoprotein (Env) (HIV-1 strain JR-FL)

How did the Neutralizing activity (percentage) at 100 µg/mL [1] turn out when Fab X5 was run?
Its Neutralizing activity (percentage) at 100 µg/mL is 100%.

What about the percentage of maximal infection, U87.CD4.CCR5.CXCR4 cells, 100 µg/mL antibody [1] of the same substance?
Its percentage of maximal infection, U87.CD4.CCR5.CXCR4 cells, 100 µg/mL antibody is 10%.

What about the Neutralizing activity (percentage) at 100 µg/mL [2] of the same substance?
The Neutralizing activity (percentage) at 100 µg/mL was 97%.

And the percentage of maximal infection, U87.CD4.CCR5.CXCR4 cells, 100 µg/mL antibody [2]?
Its percentage of maximal infection, U87.CD4.CCR5.CXCR4 cells, 100 µg/mL antibody is 8.7%.

And the Neutralizing activity (percentage) at 100 µg/mL [3]?
Its Neutralizing activity (percentage) at 100 µg/mL is 83%.

What about the percentage of maximal infection, U87.CD4.CCR5.CXCR4 cells, 100 µg/mL antibody [3] of the same substance?
Its percentage of maximal infection, U87.CD4.CCR5.CXCR4 cells, 100 µg/mL antibody is 27%.

Which Neutralizing activity (percentage) at 100 µg/mL [1] does the source give for IgG1 X5 (antibody) here?
The Neutralizing activity (percentage) at 100 µg/mL was 84%.

What about the percentage of maximal infection, U87.CD4.CCR5.CXCR4 cells, 100 µg/mL antibody [1] of the same substance?
Its percentage of maximal infection, U87.CD4.CCR5.CXCR4 cells, 100 µg/mL antibody is 28%.

And the Neutralizing activity (percentage) at 100 µg/mL [2]?
The Neutralizing activity (percentage) at 100 µg/mL was 51%.

And the percentage of maximal infection, U87.CD4.CCR5.CXCR4 cells, 100 µg/mL antibody [2]?
The percentage of maximal infection, U87.CD4.CCR5.CXCR4 cells, 100 µg/mL antibody was 55%.

What about the Neutralizing activity (percentage) at 100 µg/mL [3] of the same substance?
Its Neutralizing activity (percentage) at 100 µg/mL is 38%.

What about the percentage of maximal infection, U87.CD4.CCR5.CXCR4 cells, 100 µg/mL antibody [3] of the same substance?
The percentage of maximal infection, U87.CD4.CCR5.CXCR4 cells, 100 µg/mL antibody was 72%.

From patent US20070212363A1
